Results as given in US5336615.

Biological target: human plasminogen (human) (UniProt P00747)

“bovine urokinase-type plasminogen activator (u-PA) (from UniProt Q05589) (enzyme)” showed a u-PA activity (mPU/µg cell protein) of 4.9.
